Laboratory results: publication PMC5288196, “Native and engineered tropism of vectors derived from a rare species D adenovirus serotype 43” (Oncotarget, 2016)

Molecular target: T1, adenovirus serotype 5 virions (human adenovirus serotype 5)
T1 chain: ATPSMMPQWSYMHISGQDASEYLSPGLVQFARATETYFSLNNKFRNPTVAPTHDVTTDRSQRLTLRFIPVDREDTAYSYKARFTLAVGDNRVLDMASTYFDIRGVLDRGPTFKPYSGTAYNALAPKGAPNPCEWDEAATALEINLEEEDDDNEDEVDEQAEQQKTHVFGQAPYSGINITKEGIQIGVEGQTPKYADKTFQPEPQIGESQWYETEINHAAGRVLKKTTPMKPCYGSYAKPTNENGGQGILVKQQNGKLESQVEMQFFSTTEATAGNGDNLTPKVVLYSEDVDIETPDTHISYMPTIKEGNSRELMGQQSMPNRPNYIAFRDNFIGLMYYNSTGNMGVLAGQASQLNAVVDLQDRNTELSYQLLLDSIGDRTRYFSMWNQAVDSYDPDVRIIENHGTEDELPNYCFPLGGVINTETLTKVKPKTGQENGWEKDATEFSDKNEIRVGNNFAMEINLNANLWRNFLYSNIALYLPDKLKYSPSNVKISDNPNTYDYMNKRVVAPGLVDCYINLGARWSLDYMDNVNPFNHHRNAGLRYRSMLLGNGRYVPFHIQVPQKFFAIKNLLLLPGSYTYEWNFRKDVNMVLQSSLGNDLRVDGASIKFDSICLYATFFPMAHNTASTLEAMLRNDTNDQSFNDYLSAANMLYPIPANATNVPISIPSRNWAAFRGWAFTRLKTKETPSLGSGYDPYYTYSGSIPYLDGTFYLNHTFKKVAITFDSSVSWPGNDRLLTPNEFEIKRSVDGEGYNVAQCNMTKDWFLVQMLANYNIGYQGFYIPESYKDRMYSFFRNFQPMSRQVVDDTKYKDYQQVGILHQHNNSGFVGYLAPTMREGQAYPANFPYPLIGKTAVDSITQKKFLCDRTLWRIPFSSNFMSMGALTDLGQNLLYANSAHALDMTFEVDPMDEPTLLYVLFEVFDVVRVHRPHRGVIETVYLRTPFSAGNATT
Assay: SPR; Ad virions immobilised on the chip, probed with soluble FX in serial two-fold dilutions from 0.4 to 25 μg/ml, in duplicates
Settings: both partners purified

B1: blood coagulation factor X (natural protein)
chain 1: ANSFLEEMKKGHLERECMEETCSYEEAREVFEDSDKTNEFWNKYKDGDQCETSPCQNQGKCKDGLGEYTCTCLEGFEGKNCELFTRKLCSLDNGDCDQFCHEEQNSVVCSCARGYTLADNGKACIPTGPYPCGKQTLER
chain 2: SVAQATSSSGEAPDSITWKPYDAADLDPTENPFDLLDFNQTQPERGDNNLTRIVGGQECKDGECPWQALLINEENEGFCGGTILSEFYILTAAHCLYQAKRFKVRVGDRNTEQEEGGEAVHEVEVVIKHNRFTKETYDFDIAVLRLKTPITFRMNVAPACLPERDWAESTLMTQKTGIVSGFGRTHEKGRQSTRLKMLEVPYVDRNSCKLSSSFIITQNMFCAGYDTKQEDACQGDSGGPHVTRFKDTYFVTGIVSWGEGCARKGKYGIYTKVTAFLKWIDRSMKTRGLPKAKSHAPEVITSSPLK
modifications: Zymogen FX assumed (not FXa): light chain disulfide-linked to heavy chain with the activation peptide retained. Gamma-carboxylated Gla domain, beta-hydroxy-Asp, N-/O-glycosylation; Ca2+-bound state …
**Q.** For B1, which Kd is on record?
**A.** Its Kd is 1.5 nM.
